Assay results taken from patent US20130347134A1 (published 2013).

B4: murine platelet glycoprotein Ib alpha (GPIb α) on mouse platelets (receptor, UniProt O35930 17-734, looked up)
chain: QHTCSISKVTSLLEVNCENKKLTALPADLPADTGILHLGENQLGTFSTASLVHFTHLTYLYLDRCELTSLQTNGKLIKLENLDLSHNNLKSLPSLGWALPALTTLDVSFNKLGSLSPGVLDGLSQLQELYLQNNDLKSLPPGLLLPTTKLKKLNLANNKLRELPSGLLDGLEDLDTLYLQRNWLRTIPKGFFGTLLLPFVFLHANSWYCDCEILYFRHWLQENANNVYLWKQGVDVKDTTPNVASVRCANLDNAPVYSYPGKGCPTSSGDTDYDDYDDIPDVPATRTEVKFSTNTKVHTTHWSLLAAAPSTSQDSQMISLPPTHKPTKKQSTFIHTQSPGFTTLPETMESNPTFYSLKLNTVLIPSPTTLEPTSTQATPEPNIQPMLTTSTLTTPEHSTTPVPTTTILTTPEHSTIPVPTTAILTTPKPSTIPVPTTATLTTLEPSTTPVPTTATLTTPEPSTTLVPTTATLTTPEHSTTPVPTTATLTTPEHSTTPVPTTATLTTPEPSTTLTNLVSTISPVLTTTLTTPESTPIETILEQFFTTELTLLPTLESTTTIIPEQNSFLNLPEVALVSSDTSESSPFLNSDFCCFLPLGFYVLGLLWLLFASVVLILLLTWTWHVTPHSLDMEQSAALATSTHTTSLEVQRARQVTMPRAWLLFLQGSLPTFRSSLFLWVRPNGRVGPLVAGRRPSALSQGRGQDLLGTVGIRYSGHSL
notes: whole, on cells; Native receptor on mouse platelets or whole blood; also called murine GPIb α; mGPIb-α

Key:
[1] = biological target: B4; experiment: transient tethers of VWF-A1-coated beads on surface-immobilized murine platelets; shear stress 0.5 dyn cm-2; R2 0.96
Method: (§1) The force acting on the i tether bond was calculated from force balance equations and koff plotted as a function of these forces. […] Because these platelets cannot activate, the kinetics should be reflective of GPIb α in the resting state.
(§2) This antibody was made by immunizing Fischer 344 rats (3-4 months old) with recombinant WT protein. […] Spleens from animals with the highest antibody titers were harvested and splenocytes fused with Sp2/0 mouse myeloma cells (Kohler, et al., 1975).

[2] = biological target: B4; experiment: transient tethers of VWF-A1-coated beads on surface-immobilized murine platelets; shear stress 3.0 dyn cm-2; R2 0.98
Method: as §1, §2

[3] = biological target: B4; experiment: transient tethers of VWF-A1-coated beads on surface-immobilized murine platelets; shear stress 2.0 dyn cm-2; R2 0.95
Method: as §1, §2

[4] = biological target: T1, human platelet glycoprotein Ib alpha (GPIb α) on human platelets (human, UniProt P07359 17-652); experiment: human platelets (5x10^7/ml) perfused over coverslips coated with VWF-A1 (100 µg/ml), parallel plate flow chamber, 800 s-1
T1 construct: whole, on cells; Native receptor on washed platelets or whole blood; also called GPIb alpha; hGPIb-α
Method: (§3) The protein was subsequently used in a series of in vitro flow chamber assays to assess function. […] After 5 minutes of continuous flow, adherent platelets were quantified.

[5] = biological target: B4; experiment: transient tethers of VWF-A1-coated beads on surface-immobilized murine platelets; shear stress 2.0 dyn cm-2; R2 0.98
Method: as §1, §2

[6] = biological target: B4; experiment: transient tethers of VWF-A1-coated beads on surface-immobilized murine platelets; shear stress 1.0 dyn cm-2; R2 0.95
Method: as §1, §2

[7] = biological target: B4; experiment: platelet adhesion to coated protein, wall shear rate 800 s^-1
Method: as §3
(§4) Subsequently, the ability of murine and human platelets to interact with this mutant protein substrate was evaluated at a wall shear rate of 800 s⁻¹.

[8] = biological target: B4; experiment: platelet translocation on coated protein, wall shear rate 800 s^-1
Method: as §3, §4

[9] = biological target: T1, human platelet glycoprotein Ib alpha …; experiment: human platelets perfused over immobilized mutant VWF-A1, wall shear rate 800 s-1
[10] = biological target: T2, murine plasma von Willebrand factor (VWF), wild type (mouse, UniProt Q8CIZ8 764-2813); experiment: mouse whole blood perfused 4 min over surface-immobilized plasma VWF, 1600 s-1
T2 construct: Plasma-derived multimeric mouse VWF; also called mouse VWF; murine VWF
Method: Ex vivo platelet adhesion studies. Experiments were performed in a parallel-plate flow chamber as previously described (Offermanns, S., et al., 2006). […] Subsequently, the plate was washed and non-specific interactions blocked by the addition of TBS containing 3% BSA, pH 7.4 (1 hour, 37° C.). Human or murine plasma obtained from heparinized whole blood was added and the plates placed at 37° C. for an additional 2 hours. […] The number of platelets attached per unit area (0.07 mm²) and translocation velocities were determined by off-line analysis (Image-Pro Plus, Media Cybernetics). For GPIb α inhibition studies, the function-blocking mAb 6D1 (20 μg/ml) or mAb SZ2 (20 μg/ml; Beckman Coulter, Brea, Calif.) was added to anticoagulated human blood for 30 minutes prior to use. Experiments were performed in triplicate on two separate days. An ELISA was used to ensure equivalent coating concentration of plasma and recombinant proteins (Denis, C. et al., 1998).

[11] = biological target: T3, mouse plasma VWF containing the majority of the human A1 domain (amino acids 1240P through 1481G of human VWF) (mouse VWF with human A1 domain, UniProt Q8CIZ8 764-2813, limits assumed); experiment: parallel-plate flow system: WT mouse blood infused over surface-immobilized plasma VWF
T3 construct: Plasma VWF from homozygous VWF-HA1 mice; also called VWF-HA1; VWF HA1

[12] = biological target: T4, murine plasma VWF containing the 1326R>H mutation (VWF^1326R>H) (mouse, UniProt Q8CIZ8 764-2813); experiment: statement in Example 1; binding reduced
T4 construct: also called R1326H mutant mouse VWF; mutant murine VWF

[13] = biological target: T1, human platelet glycoprotein Ib alpha …; experiment: parallel-plate flow chamber: human whole blood perfused over the surface-immobilized recombinant A1 protein, shear rate 1600 s^-1, accumulated platelets counted
[14] = biological target: T1, human platelet glycoprotein Ib alpha …; experiment: interaction times of VWF-A1-coated beads on surface-immobilized platelets, wall shear stress 1 dyn cm^-2
Method: (§5) The duration of these interactions are measured by recording images from a Nikon X60 DIC objective (oil immersion) viewed at a frame rate of 235 fps (Speed Vision Technologies, San Diego, Calif.) and subjected to wall shear stresses (WSS) ranging from 0.5 to 3.0 dyn cm⁻². […] The force acting on the i tether bond was calculated from force balance equations and koff plotted as a function of these forces. […] Because these platelets cannot activate, the kinetics should be reflective of GPIb α in the resting state.

[15] = biological target: T1, human platelet glycoprotein Ib alpha …; experiment: interaction times of VWF-A1-coated beads on surface-immobilized platelets, wall shear stress 1 dyn cm^-2; 1309I>V + 1326H>R double mutant; 1 dyn cm^-2 wall shear stress
Method: as §5

[16] = biological target: T1, human platelet glycoprotein Ib alpha …; experiment: human platelet attachment in flow to human VWF-A1 as a function of wall shear rate

T3 sequence (Q8CIZ8 other isoform, or with tags, fused parts or gaps limits assumed): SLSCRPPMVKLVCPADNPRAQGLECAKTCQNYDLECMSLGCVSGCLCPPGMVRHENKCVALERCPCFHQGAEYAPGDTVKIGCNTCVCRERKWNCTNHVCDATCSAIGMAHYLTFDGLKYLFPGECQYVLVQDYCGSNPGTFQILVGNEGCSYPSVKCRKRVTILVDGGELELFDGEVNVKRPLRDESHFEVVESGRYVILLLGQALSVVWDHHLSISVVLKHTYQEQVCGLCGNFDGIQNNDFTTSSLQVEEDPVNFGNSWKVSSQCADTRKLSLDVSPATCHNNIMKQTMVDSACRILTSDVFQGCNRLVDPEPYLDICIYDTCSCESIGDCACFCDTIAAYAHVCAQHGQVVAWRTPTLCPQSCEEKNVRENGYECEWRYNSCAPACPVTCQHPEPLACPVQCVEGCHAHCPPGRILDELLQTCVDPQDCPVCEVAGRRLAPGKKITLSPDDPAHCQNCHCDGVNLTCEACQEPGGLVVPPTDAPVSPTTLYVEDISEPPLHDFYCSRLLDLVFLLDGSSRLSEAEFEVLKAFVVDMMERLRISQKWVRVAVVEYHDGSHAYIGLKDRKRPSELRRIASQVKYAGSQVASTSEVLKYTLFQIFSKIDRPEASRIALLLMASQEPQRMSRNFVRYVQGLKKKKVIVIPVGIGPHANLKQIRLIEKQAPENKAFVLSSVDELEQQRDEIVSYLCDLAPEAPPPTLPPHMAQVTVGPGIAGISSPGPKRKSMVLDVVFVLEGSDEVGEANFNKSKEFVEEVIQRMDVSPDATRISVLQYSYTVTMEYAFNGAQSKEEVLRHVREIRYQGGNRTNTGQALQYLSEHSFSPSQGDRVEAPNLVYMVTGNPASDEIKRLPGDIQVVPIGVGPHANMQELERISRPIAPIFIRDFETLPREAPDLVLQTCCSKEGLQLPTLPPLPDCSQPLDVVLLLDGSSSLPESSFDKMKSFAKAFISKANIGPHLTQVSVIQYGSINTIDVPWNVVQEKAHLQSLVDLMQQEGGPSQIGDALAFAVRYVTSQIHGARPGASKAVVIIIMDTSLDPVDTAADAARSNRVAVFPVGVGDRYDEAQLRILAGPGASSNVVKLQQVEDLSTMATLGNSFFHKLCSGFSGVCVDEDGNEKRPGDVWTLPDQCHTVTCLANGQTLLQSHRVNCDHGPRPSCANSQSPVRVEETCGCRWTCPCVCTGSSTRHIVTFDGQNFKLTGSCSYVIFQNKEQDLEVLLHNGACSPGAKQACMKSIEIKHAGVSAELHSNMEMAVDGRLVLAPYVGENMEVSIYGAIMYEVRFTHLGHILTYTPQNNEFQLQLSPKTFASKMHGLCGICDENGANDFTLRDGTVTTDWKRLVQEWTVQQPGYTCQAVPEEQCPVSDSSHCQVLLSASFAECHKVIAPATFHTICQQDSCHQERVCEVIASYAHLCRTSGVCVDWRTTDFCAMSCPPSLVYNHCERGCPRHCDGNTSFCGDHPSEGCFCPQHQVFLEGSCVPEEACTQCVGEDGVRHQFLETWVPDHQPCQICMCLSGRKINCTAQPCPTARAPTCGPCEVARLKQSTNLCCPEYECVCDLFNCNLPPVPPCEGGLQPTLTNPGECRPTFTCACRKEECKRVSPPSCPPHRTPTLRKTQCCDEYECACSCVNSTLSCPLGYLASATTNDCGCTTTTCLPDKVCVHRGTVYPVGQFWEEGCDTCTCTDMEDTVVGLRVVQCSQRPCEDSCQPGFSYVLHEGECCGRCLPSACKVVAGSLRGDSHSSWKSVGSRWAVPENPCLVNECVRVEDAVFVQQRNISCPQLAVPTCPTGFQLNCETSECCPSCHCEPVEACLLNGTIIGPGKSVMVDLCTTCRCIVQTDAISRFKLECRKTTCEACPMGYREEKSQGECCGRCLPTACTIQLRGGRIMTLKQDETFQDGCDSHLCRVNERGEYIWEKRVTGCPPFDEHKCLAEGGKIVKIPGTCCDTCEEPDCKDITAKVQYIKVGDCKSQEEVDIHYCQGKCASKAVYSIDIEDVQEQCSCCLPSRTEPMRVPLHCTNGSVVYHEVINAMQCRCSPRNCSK
T2 sequence (Q8CIZ8 other isoform, or with tags, fused parts or gaps limits assumed): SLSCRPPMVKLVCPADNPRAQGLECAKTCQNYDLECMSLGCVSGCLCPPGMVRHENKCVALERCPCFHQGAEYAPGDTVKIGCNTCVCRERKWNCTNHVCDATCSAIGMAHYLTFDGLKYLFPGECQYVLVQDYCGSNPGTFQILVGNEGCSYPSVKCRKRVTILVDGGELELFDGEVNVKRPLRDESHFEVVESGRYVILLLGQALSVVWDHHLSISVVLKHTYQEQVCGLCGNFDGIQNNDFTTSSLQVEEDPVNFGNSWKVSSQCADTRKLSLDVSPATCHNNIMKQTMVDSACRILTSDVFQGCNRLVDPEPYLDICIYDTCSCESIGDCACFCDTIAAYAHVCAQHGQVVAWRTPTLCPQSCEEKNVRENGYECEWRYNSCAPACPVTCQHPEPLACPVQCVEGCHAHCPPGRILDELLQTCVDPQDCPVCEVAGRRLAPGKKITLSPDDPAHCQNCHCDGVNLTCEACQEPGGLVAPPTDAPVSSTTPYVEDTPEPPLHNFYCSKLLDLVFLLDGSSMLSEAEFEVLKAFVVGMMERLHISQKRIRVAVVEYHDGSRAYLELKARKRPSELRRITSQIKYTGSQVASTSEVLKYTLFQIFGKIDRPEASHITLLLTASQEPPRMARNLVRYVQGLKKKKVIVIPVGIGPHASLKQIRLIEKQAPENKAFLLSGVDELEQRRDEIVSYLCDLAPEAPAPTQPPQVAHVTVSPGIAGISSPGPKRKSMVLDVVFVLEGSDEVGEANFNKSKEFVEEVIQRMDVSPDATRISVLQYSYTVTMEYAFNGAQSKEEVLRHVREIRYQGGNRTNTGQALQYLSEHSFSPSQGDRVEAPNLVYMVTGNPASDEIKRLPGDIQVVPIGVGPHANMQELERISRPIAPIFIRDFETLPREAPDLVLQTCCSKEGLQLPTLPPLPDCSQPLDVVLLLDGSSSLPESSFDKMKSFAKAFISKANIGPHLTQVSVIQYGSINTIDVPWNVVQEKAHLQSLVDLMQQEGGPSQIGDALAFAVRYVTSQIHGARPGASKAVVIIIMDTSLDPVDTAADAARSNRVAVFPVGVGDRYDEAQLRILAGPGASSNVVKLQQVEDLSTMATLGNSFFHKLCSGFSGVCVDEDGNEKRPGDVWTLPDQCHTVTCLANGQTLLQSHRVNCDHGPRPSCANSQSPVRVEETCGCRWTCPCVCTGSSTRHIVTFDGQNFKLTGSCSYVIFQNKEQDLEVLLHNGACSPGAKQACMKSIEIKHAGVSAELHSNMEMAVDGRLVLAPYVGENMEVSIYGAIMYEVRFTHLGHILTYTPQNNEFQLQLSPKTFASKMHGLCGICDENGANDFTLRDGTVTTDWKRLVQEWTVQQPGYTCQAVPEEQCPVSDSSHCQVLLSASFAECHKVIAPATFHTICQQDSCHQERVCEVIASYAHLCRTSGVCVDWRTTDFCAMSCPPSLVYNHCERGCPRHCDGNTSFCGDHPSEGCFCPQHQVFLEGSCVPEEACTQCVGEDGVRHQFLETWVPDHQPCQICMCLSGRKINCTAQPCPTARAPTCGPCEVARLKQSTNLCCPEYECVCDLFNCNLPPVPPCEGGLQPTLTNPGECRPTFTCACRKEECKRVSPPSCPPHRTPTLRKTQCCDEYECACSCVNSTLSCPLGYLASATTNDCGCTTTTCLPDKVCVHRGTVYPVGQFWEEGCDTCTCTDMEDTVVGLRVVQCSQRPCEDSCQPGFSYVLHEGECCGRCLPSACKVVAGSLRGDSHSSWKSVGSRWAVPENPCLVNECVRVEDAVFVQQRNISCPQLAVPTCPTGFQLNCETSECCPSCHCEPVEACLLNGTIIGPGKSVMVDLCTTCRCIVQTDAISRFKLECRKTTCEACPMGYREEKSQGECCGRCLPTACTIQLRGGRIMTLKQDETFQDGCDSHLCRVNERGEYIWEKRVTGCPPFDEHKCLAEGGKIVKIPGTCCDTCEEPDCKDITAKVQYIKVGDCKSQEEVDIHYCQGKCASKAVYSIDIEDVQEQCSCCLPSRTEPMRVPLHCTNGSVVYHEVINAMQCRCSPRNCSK

B1: recombinant wild-type murine VWF-A1 protein, His-tagged (amino acids 1233 to 1471, pQE9), Examples 1-2 (ligand)
chain: TCEACQEPGGLVAPPTDAPVSSTTPYVEDTPEPPLHNFYCSKLLDLVFLLDGSSMLSEAEFEVLKAFVVGMMERLHISQKRIRVAVVEYHDGSRAYLELKARKRPSELRRITSQIKYTGSQVASTSEVLKYTLFQIFGKIDRPEASHITLLLTASQEPPRMARNLVRYVQGLKKKKVIVIPVGIGPHASLKQIRLIEKQAPENKAFLLSGVDELEQRRDEIVSYLCDLAPEAPAPTQPP
notes: Disulfide C1272-C1458; also called mouse VWF-A1; M VWF-A1; not shown: 10 vector-derived N-terminal amino acids including 6xHis (pQE9)
[1]
  koff: 5.1 s⁻¹
[2]
  koff: 9.9 s⁻¹
[3]
  koff: 8.4 s⁻¹
[4]
  binding result: binds

B2: recombinant murine VWF-A1 containing the type 2B mutation I1309V (1309I>V) (ligand)
chain: TCEACQEPGGLVAPPTDAPVSSTTPYVEDTPEPPLHNFYCSKLLDLVFLLDGSSMLSEAEFEVLKAFVVGMMERLHVSQKRIRVAVVEYHDGSRAYLELKARKRPSELRRITSQIKYTGSQVASTSEVLKYTLFQIFGKIDRPEASHITLLLTASQEPPRMARNLVRYVQGLKKKKVIVIPVGIGPHASLKQIRLIEKQAPENKAFLLSGVDELEQRRDEIVSYLCDLAPEAPAPTQPP
notes: not shown: 10 vector-derived N-terminal amino acids including 6xHis (pQE9)
[5]
  koff: 1.6 s⁻¹
[1]
  koff: 0.7 s⁻¹
[6]
  koff: 0.9 s⁻¹

B3: recombinant murine VWF-A1 with histidine for arginine at position 1326 (Example 1) (ligand)
chain: TCEACQEPGGLVAPPTDAPVSSTTPYVEDTPEPPLHNFYCSKLLDLVFLLDGSSMLSEAEFEVLKAFVVGMMERLHISQKRIRVAVVEYHDGSHAYLELKARKRPSELRRITSQIKYTGSQVASTSEVLKYTLFQIFGKIDRPEASHITLLLTASQEPPRMARNLVRYVQGLKKKKVIVIPVGIGPHASLKQIRLIEKQAPENKAFLLSGVDELEQRRDEIVSYLCDLAPEAPAPTQPP
notes: also called mutated murine protein; not shown: 10 vector-derived N-terminal amino acids including 6xHis (pQE9)
[7]
  fold reduction in platelet adhesion versus WT mouse protein: ~5 fold
[8]
  fold increase in translocation velocity versus WT mouse protein: ~7 fold
[9]
  binding result: binds

## B4
[10]
  binding result: binds
[11]
  binding result: no binding
[12]
  binding result: binds

B5: recombinant murine rVWF-A1 1326R>H (residues 1238 to 1471), Example 3 (ligand)
chain: QEPGGLVAPPTDAPVSSTTPYVEDTPEPPLHNFYCSKLLDLVFLLDGSSMLSEAEFEVLKAFVVGMMERLHISQKRIRVAVVEYHDGSHAYLELKARKRPSELRRITSQIKYTGSQVASTSEVLKYTLFQIFGKIDRPEASHITLLLTASQEPPRMARNLVRYVQGLKKKKVIVIPVGIGPHASLKQIRLIEKQAPENKAFLLSGVDELEQRRDEIVSYLCDLAPEAPAPTQPP
[13]
  binding result: binds

B6: recombinant human VWF-A1 containing 1309I>V and 1326H>R (ligand)
chain: QEPGGLVVPPTDAPVSPTTLYVEDISEPPLHDFYCSRLLDLVFLLDGSSRLSEAEFEVLKAFVVDMMERLRVSQKWVRVAVVEYHDGSRAYIGLKDRKRPSELRRIASQVKYAGSQVASTSEVLKYTLFQIFSKIDRPEASRIALLLMASQEPQRMSRNFVRYVQGLKKKKVIVIPVGIGPHANLKQIRLIEKQAPENKAFVLSSVDELEQQRDEIVSYLCDLAPEAPPPTLPPH
[14]
  fold reduction in koff versus the single 1326H>R mutant: 2 fold
[15]
  koff: 8.5 s⁻¹

B7: recombinant human VWF-A1 containing 1309I>V and the type 2M mutation 1324G>S (ligand)
chain: QEPGGLVVPPTDAPVSPTTLYVEDISEPPLHDFYCSRLLDLVFLLDGSSRLSEAEFEVLKAFVVDMMERLRVSQKWVRVAVVEYHDSSHAYIGLKDRKRPSELRRIASQVKYAGSQVASTSEVLKYTLFQIFSKIDRPEASRIALLLMASQEPQRMSRNFVRYVQGLKKKKVIVIPVGIGPHANLKQIRLIEKQAPENKAFVLSSVDELEQQRDEIVSYLCDLAPEAPPPTLPPH
[16]
  binding result: no binding
